Measurements reported in article PMC4299599, “Quantification of cytosolic interactions identifies Ede1 oligomers as key organizers of endocytosis” (Molecular Systems Biology, 2014).
Blank lines part the entries; values can stand above or below the molecule they belong to.

Experiments:
[1] = biological target: Las17 polyproline motif (Saccharomyces cerevisiae) (UniProt Q12446); conditions: cited from earlier work
[2] = biological target: T1, Ede1 (Ede1-3myeGFP / Ede1-3mCherry) (S. cerevisiae, UniProt P34216 1-1381); assay: fluorescence cross-correlation spectroscopy (FCCS); living yeast cells, observation volume in the cytoplasm; one protein tagged with (3)myeGFP/eGFP and the other with 3mCherry in the same strain; apparent (effective) KD; interactions up to ~1 μM detectable; conditions: partners not purified
T1 construct: Ede1, S. cerevisiae, homolog of mammalian Eps15; expressed from its own locus; also called wild-type Ede1; full-length Ede1; source: S. cerevisiae, chromosomally tagged at the endogenous locus, in living cells; not shown: 3myeGFP, C-terminal, kept; 3mCherry, C-terminal, kept
T1 sequence (looked up): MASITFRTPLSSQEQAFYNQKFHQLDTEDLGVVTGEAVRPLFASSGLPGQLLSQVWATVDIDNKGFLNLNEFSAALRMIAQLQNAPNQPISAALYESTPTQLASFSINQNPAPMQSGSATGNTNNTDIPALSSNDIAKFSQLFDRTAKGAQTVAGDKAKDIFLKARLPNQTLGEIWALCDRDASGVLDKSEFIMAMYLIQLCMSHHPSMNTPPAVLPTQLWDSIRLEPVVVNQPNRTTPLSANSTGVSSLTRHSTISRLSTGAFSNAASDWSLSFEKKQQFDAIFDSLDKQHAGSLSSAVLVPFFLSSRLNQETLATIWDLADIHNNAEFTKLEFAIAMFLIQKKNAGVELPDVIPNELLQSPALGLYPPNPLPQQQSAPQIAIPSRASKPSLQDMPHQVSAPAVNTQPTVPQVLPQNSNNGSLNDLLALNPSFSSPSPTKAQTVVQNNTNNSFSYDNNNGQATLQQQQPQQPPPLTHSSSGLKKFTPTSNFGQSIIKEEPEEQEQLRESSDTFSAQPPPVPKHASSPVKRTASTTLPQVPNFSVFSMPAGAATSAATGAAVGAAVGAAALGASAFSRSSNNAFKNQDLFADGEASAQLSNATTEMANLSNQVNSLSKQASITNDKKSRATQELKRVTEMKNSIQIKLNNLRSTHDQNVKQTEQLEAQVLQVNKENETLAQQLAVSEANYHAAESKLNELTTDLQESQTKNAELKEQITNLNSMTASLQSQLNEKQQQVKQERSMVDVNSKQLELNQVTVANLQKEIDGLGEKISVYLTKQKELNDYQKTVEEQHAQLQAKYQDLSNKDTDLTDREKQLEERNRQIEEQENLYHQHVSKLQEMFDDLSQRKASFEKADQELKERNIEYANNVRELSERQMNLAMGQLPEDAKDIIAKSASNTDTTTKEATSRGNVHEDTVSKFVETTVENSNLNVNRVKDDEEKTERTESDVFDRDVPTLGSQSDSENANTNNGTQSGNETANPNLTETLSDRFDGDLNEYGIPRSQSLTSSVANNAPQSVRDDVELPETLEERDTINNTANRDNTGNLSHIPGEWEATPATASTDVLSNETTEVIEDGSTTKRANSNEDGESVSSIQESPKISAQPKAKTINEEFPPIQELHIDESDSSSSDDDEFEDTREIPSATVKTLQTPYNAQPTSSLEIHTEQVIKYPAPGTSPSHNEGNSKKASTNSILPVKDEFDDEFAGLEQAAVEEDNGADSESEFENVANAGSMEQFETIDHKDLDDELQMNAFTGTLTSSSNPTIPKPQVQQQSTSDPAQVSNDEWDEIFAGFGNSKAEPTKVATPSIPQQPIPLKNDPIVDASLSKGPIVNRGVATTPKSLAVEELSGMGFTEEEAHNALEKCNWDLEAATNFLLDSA

Apl3 = biological target: T2, Apl3 (S. cerevisiae, UniProt P38065 1-1025); assay: fluorescence cross-correlation spectroscopy (FCCS); in the cytoplasm of living yeast cells; first-named protein green (3myeGFP or 1myeGFP; eGFP for Don1), second red (3mCherry); self-interaction in diploid strains with one allele of each colour; apparent or effective KD (Kdeff) from single-cell measurements; only Kdeff values < 1000 nM are shown; values for self-interactions are upper limits; conditions: partners not purified
T2 construct: Apl3, subunit of the AP2 complex, S. cerevisiae; also called Apl3-3myeGFP; Apl3-3mCherry; source: chromosomally tagged at the endogenous locus, in the cytoplasm of living S. cerevisiae cells
T2 sequence (looked up): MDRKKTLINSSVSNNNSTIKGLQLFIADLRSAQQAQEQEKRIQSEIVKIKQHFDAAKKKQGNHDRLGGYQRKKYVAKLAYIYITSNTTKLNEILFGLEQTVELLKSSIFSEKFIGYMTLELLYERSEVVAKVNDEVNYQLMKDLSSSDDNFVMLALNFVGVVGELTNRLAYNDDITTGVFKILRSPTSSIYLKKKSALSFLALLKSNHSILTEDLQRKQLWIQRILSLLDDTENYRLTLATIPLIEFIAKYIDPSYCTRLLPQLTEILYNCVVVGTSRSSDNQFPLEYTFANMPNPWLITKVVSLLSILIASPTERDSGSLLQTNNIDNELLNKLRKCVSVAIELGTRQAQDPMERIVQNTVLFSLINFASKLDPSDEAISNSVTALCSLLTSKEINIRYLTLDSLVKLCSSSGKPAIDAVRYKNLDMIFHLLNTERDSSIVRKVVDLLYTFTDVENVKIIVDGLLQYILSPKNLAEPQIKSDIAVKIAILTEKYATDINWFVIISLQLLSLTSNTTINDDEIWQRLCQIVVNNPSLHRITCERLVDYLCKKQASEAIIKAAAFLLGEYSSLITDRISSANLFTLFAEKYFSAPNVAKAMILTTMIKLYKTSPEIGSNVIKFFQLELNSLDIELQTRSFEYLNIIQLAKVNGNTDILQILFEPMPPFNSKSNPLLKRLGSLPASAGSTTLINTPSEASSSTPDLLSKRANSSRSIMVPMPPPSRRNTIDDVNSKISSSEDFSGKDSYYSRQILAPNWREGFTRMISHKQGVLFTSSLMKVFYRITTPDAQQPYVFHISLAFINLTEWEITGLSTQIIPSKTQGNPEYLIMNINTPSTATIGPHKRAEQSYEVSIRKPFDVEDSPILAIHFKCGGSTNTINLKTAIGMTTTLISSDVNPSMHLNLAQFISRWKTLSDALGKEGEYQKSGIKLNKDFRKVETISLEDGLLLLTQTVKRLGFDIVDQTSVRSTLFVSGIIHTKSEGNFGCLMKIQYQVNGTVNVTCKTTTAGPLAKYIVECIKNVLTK

[3] = biological target: the molecule itself; assay: FCS molecular brightness (counts per particle per second); living yeast cells, cytoplasm; brightness of GFP-tagged particles compared with 3myeGFP and Ent2-3myeGFP (monomers) or with wild-type Ede1; average of all particles

Molecule: Sla1 SH3 domains (from UniProt P32790)
Kd [1]: 0.056 µM

Kd [2]: 0.227 µM
B1: Syp1 (natural protein, S. cerevisiae, UniProt P25623 1-870, looked up)
chain: MTEQRTKYADSILTTKSPYEATETIRIRLSQVKLLNKDFYLLFKELANLKRNYAQQLRKIIAENEDITKILNAQMIESNVLTPQEMSAFRFNSLGELRNVWDTVIEELKSDLKSSTEYYNTLDQQVVRELKESVENNTSWRESKDLHSKLSKNAASIEHYSKNNENSSHLEEARRQWDQQSPYLFELFETIDYNRLDTLKNCMLRFQTSFSDYLLNTTKECETVMTKFLAFEPQSEIDRFAKDASQYNFQLSSSSKEVVPNNASPASATGARPVSVSNGAANTEREKKSPQKDKRKSAFGNIGHRLASASSSLTHNDLMNNEFSDSTNNSSLKSKKSSHTLRSKVGSIFGRNKTKNKRQQQSSSNSHIQASITETPNNSSTRVSSTATSSIYQKQRRPTYSSSKSNNWTPGEASDTPPLPPHATPKNVDAPVTADTPPAQTFTPSEVPPSTPQQSSPPTAKEPDSSNLPKTVPISISQPPLQPQSKTKPLPVEPASPSISLPTATVDNQPSGQVDSRPLHIRAPALPPSRKQNFIHNRDSQLYDSLPNHGSGATPTSSSLSSIPQERPVSTLSSQITGELRELNPQATGSSTSLVGQSLFQHSSLDTSQFGLNASIAEVLNASFKDGMLQNSQLIGEIALNYLPNSVMNSPLPIGINLRINNGAKFEKVILNQAFIERVAPEEFKVNPSFIDSRTLGAIKYSIKEPIAPIVIHPVWRFESHQASVVLTVKMSPSLPDEISQIVIEDLVVFVNIDGANATSALSKPQGSFSKEKKRITWRFKEPVVLTRNGEGQRLIARFITDGLAHESAKGVITKFTISETDNVALPHSGAGSGITLTCQELDENNPFGGEWLDVNTKRTLTTGNYHGLA
notes: Syp1, S. cerevisiae endocytic adaptor; Each copy carries one of the two tags; also called Syp1-3myeGFP; source: S. cerevisiae, chromosomally tagged at the endogenous locus, in living cells; not shown: 3myeGFP, C-terminal, kept; 3mCherry, C-terminal, kept

Kd (Apl3): 0.037 µM
B2: Apl1 (natural protein, S. cerevisiae, UniProt P27351 1-700, looked up)
chain: MSDQKVFARYKANEIVTDLQHFGVKKFKSNITRRKNALRKIIANLVLGNYGEMSVLFSELLKFWQIEDDLEVKRICHEYIRVIGALKPQQAREALPFIMDDFKSRDEKLQIMALRTLVLVPVKELSDQAFDCIISLVNHKSPPEQVTRTAIYALLDLDEIDHERVLGLSSILHDIVKAQSSSPEVIVAALHTLYSIHEKNANMEPFRIPLELAFDMLELLPELNEWNKATVLEVLTTSVVPQHYLDTHEMIELALPYLQQVNTYVVLNSLKFIMYLLNYVDVIKETLAEKLSNSVIALLDKPPELQFLVLRNVILLLLSRESSLLRLDISYFFIEYNDPIYIKDTKLECLYLLANKETLPRILEELEQYATDIDIQMSRKSVRAIGNLAVKLDEDSVHDCVAVLLDLLEFGVDYVVQEIISVFRNILRKYPNNFKANVTELVKHTEVVQEPESKNAMIWIITQYSDVIPNYLELFRVFSSNMFSETLEVQFSILNSAIKFFIRSPTKETEELCMDLLKGCIDHENNPDLRDKTLMYWRLLSLTKTSRISNAITFESLKSVLDGELPLIEMNTKLDPTVLEELELNIGTIVSIYLKPVSHIFRLNKTKLLPQSPILNPNKDLLPVVGNSFPPTGANRDRQNSESQSSTKSRKTAMMDDYDKPAEKINQLKGKRKSSSNNPSKLSRKPSTLLRKLSMKRPFS
notes: Apl1, subunit of the AP2 complex, S. cerevisiae; also called Apl1-1myeGFP; Apl1-3mCherry; source: chromosomally tagged at the endogenous locus, in the cytoplasm of living S. cerevisiae cells

Kd [2]: 0.59 µM
B3: Sla2 (natural protein, S. cerevisiae, UniProt P33338 1-968, looked up)
chain: MSRIDSDLQKALKKACSVEETAPKRKHVRACIVYTWDHQSSKAVFTTLKTLPLANDEVQLFKMLIVLHKIIQEGHPSALAEAIRDRDWIRSLGRVHSGGSSYSKLIREYVRYLVLKLDFHAHHRGFNNGTFEYEEYVSLVSVSDPDEGYETILDLMSLQDSLDEFSQIIFASIQSERRNTECKISALIPLIAESYGIYKFITSMLRAMHRQLNDAEGDAALQPLKERYELQHARLFEFYADCSSVKYLTTLVTIPKLPVDAPDVFLINDVDESKEIKFKKREPSVTPARTPARTPTPTPPVVAEPAISPRPVSQRTTSTPTGYLQTMPTGATTGMMIPTATGAANAIFPQATAQMQPDFWANQQAQFANEQNRLEQERVQQLQQQQAQQELFQQQLQKAQQDMMNMQLQQQNQHQNDLIALTNQYEKDQALLQQYDQRVQQLESEITTMDSTASKQLANKDEQLTALQDQLDVWERKYESLAKLYSQLRQEHLNLLPRFKKLQLKVNSAQESIQKKEQLEHKLKQKDLQMAELVKDRDRARLELERSINNAEADSAAATAAAETMTQDKMNPILDAILESGINTIQESVYNLDSPLSWSGPLTPPTFLLSLLESTSENATEFATSFNNLIVDGLAHGDQTEVIHCVSDFSTSMATLVTNSKAYAVTTLPQEQSDQILTLVKRCAREAQYFFEDLMSENLNQVGDEEKTDIVINANVDMQEKLQELSLAIEPLLNIQSVKSNKETNPHSELVATADKIVKSSEHLRVDVPKPLLSLALMIIDAVVALVKAAIQCQNEIATTTSIPLNQFYLKNSRWTEGLISAAKAVAGATNVLITTASKLITSEDNENTSPEQFIVASKEVAASTIQLVAASRVKTSIHSKAQDKLEHCSKDVTDACRSLGNHVMGMIEDDHSTSQQQQPLDFTSEHTLKTAEMEQQVEILKLEQSLSNARKRLGEIRRHAYYNQDDD
notes: Sla2, S. cerevisiae; Each copy carries one of the two tags; also called Sla2-3myeGFP; source: S. cerevisiae, chromosomally tagged at the endogenous locus, in living cells; not shown: 3myeGFP, C-terminal, kept; 3mCherry, C-terminal, kept
molecular brightness per particle relative to 3myeGFP [3]: 2 fold
